Tests used:
[1] = test system: human and mouse lymphoma cell lines; assay: Cell proliferation in panel of BTLAhi and BTLAlo lymphoma cell lines; format: cell-based
Description: (§1) FIG. 7A-H. The solHVEM (either Leu39-Va1202 or Pro37-Va1202) protein restores tumor suppressive effects of HVEM.
FIG. 17. sTNFRSF14 inhibits the growth of lymphoma cell lines in vitro. Three lymphoma cell lines (Myc-Bc12, LY-10, Granta) were plated at 1×10^5 cells/ml and were treated with sTNFRSF14 (5 ug/ml) or vehicle each day for 72 hours. After 72 hours cells were counted using a hemocytometer. Each bar represents the average of three independent experiments.
(§2) Building on these findings, experiments were performed to test whether solHVEM would have any single agent activity against lymphomas. First, the expression of the BTLA receptor was characterized across a panel of human and mouse lymphoma (mostly DLBCL) cell lines. […] Next, experiments were performed to test if solHVEM had any effect on established BTLA^hi lymphomas in vivo. Briefly, aggressive MYC/BCL2 double positive murine lymphoma cells that express BTLA (BTLA^hi) were transplanted into the flanks of J:Nu nude mice and mice were treated with 20 μg of solHVEM or vehicle (PBS) every three days for a total four times once the engrafted tumors reached a volume of ˜50 mm3. […] Similar results were obtained both in vitro and in vivo with a different soluble HVEM molecule consisting of the extracellular region from amino acids Pro37 to Va1202 (SEQ ID NO. 6).
Lymphoma cell lines DoHH2, Ly-10, Granta, Su-DHL-6 were maintained in RPMI 1640 with 10% fetal bovine serum, 1% L-Glutamine and 1% penicillin/streptomycin. Mouse lymphoma cell line myc-bcl2 was maintained in IMDM-DMEM (50:50) with 10% fetal bovine serum, 1% L-Glutamine, and 1% penicillin/streptomycin. Cell lines were seeded at 5×10^5/mL and were treated with 5 m/m1 of sHVEM. After 24 hours cell number was counted using hemocytometer for a total of 72 hours after treatment.

DOHH2 cells = assay: BTK, SYK and ERK activation in anti-IgG-stimulated DOHH2 cells; format: cell-based, human
Description: as §1
FIG. 14A-E. Effect of solHVEM (either Leu39-Va1202 or Pro37-Va1202) on murine and human FL B cells. FIG. 14A and FIG. 14B, Quantification of pSYK levels in DOHH2 lymphoma cells that were stimulated with anti-IgG in the presence or absence of Pro37-Va1202 solHVEM (5 μg/ml) (* indicated p<0.01); representative FACS measurement in (FIG. 14B) FIG. 14C, FACS analysis of BTLA expression in a panel of lymphoma lines including murine myc/bc12 lymphomas and human lines (DOHH2, Su-DHL6, Granta, Ly10); FIG. 14D, representative pictures of tumors from mice; FIG. 14E, tumor weight of mouse tumors (n=3, p<0.01).
FIG. 15A-B. sTNFRSF14 opposes B cell receptor signaling in lymphoma B cells by decreasing P-BTK. A B-cell lymphoma cell line (DOHH2) was pre-treated for one hour with the soluble ectodomain of TNFRSF14 (sTNFRSF14) Pro 37-Val 202 (5 ug/ml) or the BTK inhibitor Ibrutinib (10nmM) and then stimulated for 5 mins at 37° C. with anti-IgG molecule. The cells were subsequently fixed and permeabilized and probed for pBTK expression using phospo-flow antibodies and analyzed on BD Fortessa. FIG. 15A, Representative FACS plots. FIG. 15B, Quantification of mean fluorescence intensity of phospho-BTK after treatment with vehicle or drug.
FIG. 16A-B. sTNFRSF14 opposes B-cell receptor signaling in lymphoma B cells by decreasing P-SYK. A B-cell lymphoma cell line (DOHH2) was pre-treated for one hour with the soluble ectodomain of TNFRSF14 (sTNFRSF14) Pro37-Val 202 (5 ug/ml) or the BTK inhibitor Ibrutinib (10nmM) and then stimulated for 5 mins at 37° C. with anti-IgG molecule. The cells were subsequently fixed and permeabilized and probed for pSYK expression using phospo-flow antibodies and analyzed on a BD Fortessa. FIG. 16A, Representative FACS plots. FIG. 16B, Quantification of mean fluorescence intentisty of phospho-SYK after treatment with vehicle or drug.
as §2
For phospho-BTK, phospho-Syk staining, cells were pretreated for 60 min with either 5 μg/mL of sHVEM (R&D Systems) or 10 ng/mL Ibrutinib (ChemieTek PCI-32765) at 37° C. Cells were fixed by adding equal volume of formaldehyde directly to the cells. Cells were incubated for 10 minutes at room temperature, washed 2× in PBS and the residual cells were permeabilized in 1 mL of ice cold methanol (100%) for 30 min on ice. Cells were then washed twice and stained with the phospho-BTK (Bd Biosciences clone N35-88) and phospho-Syk (Bd Biosciences clone 17 A/P-Zap70) and analyzed on BD LSRFortessa. […]

[2] = DOHH2 (BTLAhi, HVEM deleted), 10 μg/ml

With “solHVEM: Leu39-Val202 soluble HVEM ectodomain polypeptide of SEQ ID NO. 8” the “growth of BTLAhi lymphoma cells” value ([1]; BTLAhi lines (DOHH2, SU-DHL6, murine MYC/BCL2), 5 μg/ml) was “significant growth inhibition”, the “growth of BTLAlo lymphoma cells” value ([1]; BTLAlo lines (Granta, Su-DHL10), 5 μg/ml) was “not affected” and the ERK activation (DOHH2 cells; [2]) was “readily blocked”. The SYK activation (DOHH2 cells; [2]) was “readily blocked”.

B1: sTNFRSF14: Pro37-Val202 soluble HVEM ectodomain polypeptide of SEQ ID NO. 6 (protein, listed as Homo sapiens)
chain: PALPSCKEDEYPVGSECCPKCSPGYRVKEACGELTGTVCEPCPPGTYIAHLNGLSKCLQCQMCDPAMGLRASRNCSRTENAVCGCSPGHFCIVQDGDHCAACRAYATSSPGQRVQKGGTESQDTLCQNCPPGTFSPNGTLEECQHQTKCSWLVTKAGAGTSSSHWV
For B1, the “cell growth in cell lines that did not express BTLA” value ([1]; 5 ug, three days) was “did not inhibit cell growth”, the “cell growth in cell lines with highest BTLA levels” value ([1]; Myc-Bc12 cell line, 5 ug, three days) was “largest effect on growth” and the BTK activation (DOHH2 cells; [2]) was “readily blocked”. For the same molecule, the “activation (phosphorylation) of BTK” value (DOHH2 cells; DOHH2, one hour pre-incubation, 5 ug/ml, anti-IgG) was “effectively blocked” and the “levels of phosphorylated SYK” value (DOHH2 cells; DOHH2, one hour pre-treatment, 5 ug/ml, anti-IgG) was “inhibited”.
